Measurements reported in patent US20100266614A1 (AstraZeneca / MedImmune, published 2010).
Changes are numbered by the printed parent chain.

Key:
[1] = biological target: T1, RSV F protein (C-terminal truncated F protein secreted from a recombinant baculovirus) (respiratory syncytial virus (RSV), UniProt P03420 26-524); assay: SPR (BIAcore), from the kinetic constants of Table 4
T1 construct: also called F antigen; RSV F antigen

[2] = biological target: T1, RSV F protein (C-terminal truncated F …); assay: SPR (BIAcore), F protein immobilized by EDC/NHS, Fab injected; kon and koff measured separately
[3] = biological target: T1, RSV F protein (C-terminal truncated F …); assay: ELISA titration of antibody on 500 ng RSV F antigen; qualitative score from titration curves
[4] = biological target: T1, RSV F protein (C-terminal truncated F …); assay: SPR (BIAcore), F protein immobilized by EDC/NHS, Fab injected; calculated from the rate constants
[5] = biological target: T1, RSV F protein (C-terminal truncated F …); assay: ELISA titration of antibody on RSV F antigen, O.D. 560

T1 sequence (P03420 26-109, chain 1 of 2): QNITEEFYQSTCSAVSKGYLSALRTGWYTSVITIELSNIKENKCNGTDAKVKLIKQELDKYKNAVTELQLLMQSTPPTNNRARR
T1 sequence (P03420 137-524, chain 2 of 2): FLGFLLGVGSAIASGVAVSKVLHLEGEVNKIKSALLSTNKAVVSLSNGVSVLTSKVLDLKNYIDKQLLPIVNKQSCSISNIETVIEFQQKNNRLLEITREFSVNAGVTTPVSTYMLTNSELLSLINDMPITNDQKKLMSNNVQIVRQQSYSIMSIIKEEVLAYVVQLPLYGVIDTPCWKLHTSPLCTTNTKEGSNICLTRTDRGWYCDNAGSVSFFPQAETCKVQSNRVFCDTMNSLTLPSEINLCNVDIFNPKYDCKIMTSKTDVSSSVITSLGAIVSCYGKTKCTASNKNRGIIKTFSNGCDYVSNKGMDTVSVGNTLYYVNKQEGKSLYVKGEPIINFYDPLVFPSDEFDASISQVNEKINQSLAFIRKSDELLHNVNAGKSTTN

B1: clone 3 (PFFF) (Fab, V domains shown)
VH: QVTLRESGPALVKPTQTLTLTCTFSGFSLSTPGMSVGWIRQPPGKALEWLADIWWDDKKDYNPSLKSRLTISKDTSKNQVVLKVTNMDPADTATYYCARSMITNFYFDVWGQGTTVTVSS
VL: DIQMTQSPSTLSASVGDRVTITCSASSSVGYMHWYQQKPGKAPKLLIYDTFKLASGVPSRFSGSGSGTEFTLTISSLQPDDFATYYCFQGSFYPFTFGGGTKVEIK
notes: also called 3 (n = 3)
Kd [1]: ~12.3 pM
koff [2]: 1.35e-06 s⁻¹
kon [2]: 110000 M⁻¹ s⁻¹
Ag Score [3]: 4 arbitrary score 0-4
Ka [4]: 8.15e+10 M⁻¹

B2: clone 13 (SFFF) (antibody, V domains shown)
VH: B1 VH with P32S
VL: B1 VL
notes: also called 13 (n = 3)
Ag Score [3]: 2.5 arbitrary score 0-4

B3: clone 14 (SFFW) (antibody, V domains shown)
VH: B1 VH with P32S
VL: B1 VL with F92W
Ag Score [3]: 2.5 arbitrary score 0-4

B4: clone 19 (SFSW) (antibody, V domains shown)
VH: B1 VH with P32S
VL: B1 VL with F51S, F92W
Ag Score [3]: 2 arbitrary score 0-4

B5: clone 2 (AFFG) (Fab, V domains shown)
VH: B1 VH with P32A
VL: B1 VL with F92G
Kd [1]: ~13.7 pM
koff [2]: 1.82e-06 s⁻¹
kon [2]: 133000 M⁻¹ s⁻¹
Ag Score [3]: 4 arbitrary score 0-4
Ka [4]: 7.31e+10 M⁻¹

B6: clone 1 (AFSF) (Fab, V domains shown)
VH: B1 VH with P32A
VL: B1 VL with F51S
Kd [1]: ~14.3 pM
koff [2]: 1.62e-06 s⁻¹
kon [2]: 113000 M⁻¹ s⁻¹
Ag Score [3]: 4 arbitrary score 0-4
Ka [4]: 6.98e+10 M⁻¹

B7: clone 15 (AFSG) (antibody, V domains shown)
VH: B1 VH with P32A
VL: B1 VL with F51S, F92G
notes: also called 15 (n = 2)
Ag Score [3]: 2.5 arbitrary score 0-4

B8: clone 18 (SFFG) (antibody, V domains shown)
VH: B1 VH with P32S
VL: B1 VL with F92G
notes: also called 18 (n = 2)
Ag Score [3]: 2 arbitrary score 0-4

B9: clone 22 (AFFF) (Fab, V domains shown)
VH: B1 VH with P32A
VL: B1 VL
notes: also called 4D2-7
Kd [1]: ~2.8 pM
koff [2]: 3.7e-07 s⁻¹
kon [2]: 134000 M⁻¹ s⁻¹
Ka [4]: 3.62e+11 M⁻¹

B10: clone 9 (PFSW) (antibody, V domains shown)
VH: B1 VH
VL: B1 VL with F51S, F92W
notes: also called 9 (n = 2)
Ag Score [3]: 3 arbitrary score 0-4

B11: clone 20 (SFSF) (antibody, V domains shown)
VH: B1 VH with P32S
VL: B1 VL with F51S
Ag Score [3]: 2 arbitrary score 0-4

B12: clone 16 (PFSG) (antibody, V domains shown)
VH: B1 VH
VL: B1 VL with F51S, F92G
notes: also called 16 (n = 2)
Ag Score [3]: 2 arbitrary score 0-4

B13: clone 11 (PWFW) (antibody, V domains shown)
VH: B1 VH with F105W
VL: B1 VL with F92W
Ag Score [3]: 3 arbitrary score 0-4

B14: clone 5 (PFFW) (antibody, V domains shown)
VH: B1 VH
VL: B1 VL with F92W
notes: also called 5 (n = 3)
Ag Score [3]: 3.5 arbitrary score 0-4

B15: clone 4 (PFFY) (antibody, V domains shown)
VH: B1 VH
VL: B1 VL with F92Y
notes: also called 4 (n = 3)
Ag Score [3]: 3.5 arbitrary score 0-4
EC50 (read off the curve) [5]: ~0.01 µg/mL

B16: clone 6 (PFYF) (antibody, V domains shown)
VH: B1 VH
VL: B1 VL with F51Y
Ag Score [3]: 3.5 arbitrary score 0-4
EC50 (read off the curve) [5]: ~0.02 µg/mL

B17: clone 10 (PFSF) (antibody, V domains shown)
VH: B1 VH
VL: B1 VL with F51S
Ag Score [3]: 3 arbitrary score 0-4

B18: 16 (antibody, V domains shown)
VH: B1 VH with P32A, F105W
VL: B1 VL with F51S, F92G
notes: also called AWSG
EC50 (read off the curve) [5]: ~0.03 µg/mL

B19: clone 12 (PWFF) (antibody, V domains shown)
VH: B1 VH with F105W
VL: B1 VL
notes: also called 12 (n = 2)
Ag Score [3]: 2.5 arbitrary score 0-4

B20: clone 21 (SWYF) (antibody, V domains shown)
VH: B1 VH with P32S, F105W
VL: B1 VL with F51Y
Ag Score [3]: 2 arbitrary score 0-4

B21: clone 17 (PWSW) (antibody, V domains shown)
VH: B1 VH with F105W
VL: B1 VL with F51S, F92W
Ag Score [3]: 2 arbitrary score 0-4
EC50 (read off the curve) [5]: ~0.04 µg/mL

B22: clone 7 (PFFG) (antibody, V domains shown)
VH: B1 VH
VL: B1 VL with F92G
notes: also called 7 (n = 4)
Ag Score [3]: 3 arbitrary score 0-4

B23: clone 23 (AFFY) (Fab, V domains shown)
VH: B1 VH with P32A
VL: B1 VL with F92Y
Kd [1]: ~2.5 pM
koff [2]: 3.03e-07 s⁻¹
kon [2]: 122000 M⁻¹ s⁻¹
Ka [4]: 4.03e+11 M⁻¹

B24: IX-493 (SWSG), basic or reference antibody (Fab, V domains shown)
VH: B1 VH with P32S, F105W
VL: B1 VL with F51S, F92G
notes: also called basic antibody
Ag Score [3]: 0.1 arbitrary score 0-4
EC50 (read off the curve) [5]: ~0.2 µg/mL
